The source of these data is article PMC2887905.

Assay [1] deals with Recombinant HIV-1 gp120 (LAV, CXCR4 monotropic, identical to NL4-3 gp120, glycosylated) (HIV-1 (LAV; identical to NL4-3 gp120)) (UniProt P03377).
Assay [2] addresses gp41 (ARP671, spanning the entire extracellular domain of HIV-1 gp41MN) (HIV-1 (MN)) (UniProt P05877). As to the kind of experiment: SPR; gp41 immobilised on a biosensor; data not shown.
Chain of UniProt P05877 (P05877 32-685): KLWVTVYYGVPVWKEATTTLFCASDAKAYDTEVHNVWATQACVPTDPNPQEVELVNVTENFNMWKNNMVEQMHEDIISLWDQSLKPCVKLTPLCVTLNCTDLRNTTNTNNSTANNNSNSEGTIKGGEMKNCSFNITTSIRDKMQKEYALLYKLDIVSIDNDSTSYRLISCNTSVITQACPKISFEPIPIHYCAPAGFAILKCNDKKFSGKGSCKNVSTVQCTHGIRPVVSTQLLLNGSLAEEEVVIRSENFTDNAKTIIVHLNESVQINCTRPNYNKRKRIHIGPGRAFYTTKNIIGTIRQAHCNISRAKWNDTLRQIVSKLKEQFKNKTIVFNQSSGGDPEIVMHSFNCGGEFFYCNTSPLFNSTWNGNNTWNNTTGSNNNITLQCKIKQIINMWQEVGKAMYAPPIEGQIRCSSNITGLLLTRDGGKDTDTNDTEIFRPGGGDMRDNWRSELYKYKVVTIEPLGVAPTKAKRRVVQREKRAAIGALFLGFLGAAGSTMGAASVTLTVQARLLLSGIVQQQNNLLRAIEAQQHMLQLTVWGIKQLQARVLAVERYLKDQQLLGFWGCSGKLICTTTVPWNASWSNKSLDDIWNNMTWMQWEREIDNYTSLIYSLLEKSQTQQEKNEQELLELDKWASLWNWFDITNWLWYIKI

Regarding “HOCl-modified human serum albumin (protein:HOCl molar ratio 1:1000) (from UniProt P02768 25-609)”, in assay [1], the neutralisation of HIV-1 NL4-3 infection, p24 antigen ELISA on day 5, dose-dependent, value at 20 μg/ml was greater than 95%. The substance also returned a response units in assay [2] of less than 5 RU.
The corresponding values for “HOCl-modified bovine serum albumin (protein:HOCl molar ratio 1:1000) (from UniProt P02769 25-607)” are greater than 90% and less than 5 RU.
With “HOCl-modified mouse serum albumin (protein:HOCl molar ratio 1:1000) (from UniProt P07724 25-608)”, the neutralisation of HIV-1 NL4-3 infection, p24 antigen ELISA on day 5, value at 50 μg/ml in assay [1] is greater than 90%. The substance also yielded a response units in assay [2] of less than 5 RU.
